Assay results: the RNAGym collection of RNA variant scans (doi:10.1101/gr.219683.116)

B1: mRNA-splicing (parent)
chain: AGUUGCUGCUGGGAGCUCCAGCACAGUGAAAUGGACAGAAGGGCAGAGCAA

Variants of: B1
Assay: exon inclusion enrichment index; higher = more inclusion; WT1 exon 5 minigene, HEK293

Variant	exon inclusion enrichment index
AGUUGAAGAAGGGAGCUCCAGCACAGUGAAAUGGAAGGAAGGGCAGAGCAA [C6A U7A C9A U10A C36A A37G]	0.204
AGUUGAAGAAGGGAGCUCCAGCACAGUGAAAUGGACAGAAGGGUAGAGCAA [C6A U7A C9A U10A C44U]	0.122
AGUUGAAGAAGGGAGCUCCAGCACAGUGAAAUGGACAGAAGGGAAGAGCAA [C6A U7A C9A U10A C44A]	1.49
AGUUGAAGAAGGGAGCUCCAGCACAGUGAAAUGGACAGAAGGGGAGAGCAA [C6A U7A C9A U10A C44G]	1.03
AGUUGAAGAAUGGAGCUCCAGCACAGUGAAAUGGACAGAAGGGCAGAGCAA [C6A U7A C9A U10A G11U]	2.89
AGUUGAAGAACGGAGCUCCAGCACAGUGAAAUGGACAGAAGGGCAGAGCAA [C6A U7A C9A U10A G11C]	3.21
AGUUGAAGAAAGGAGCUCCAGCACAGUGAAAUGGACAGAAGGGCAGAGCAA [C6A U7A C9A U10A G11A]	1.96
AGUUGAAGAAGUUAGCUCCAGCACAGUGAAAUGGACAGAAGGGCAGAGCAA [C6A U7A C9A U10A G12U G13U]	0.144
AGUUGAAGAAGUCAGCUCCAGCACAGUGAAAUGGACAGAAGGGCAGAGCAA [C6A U7A C9A U10A G12U G13C]	1.06
AGUUGAAGAAGUAAGCUCCAGCACAGUGAAAUGGACAGAAGGGCAGAGCAA [C6A U7A C9A U10A G12U G13A]	0.633
AGUUGAAGAAAUGAGCUCCAGCACAGUGAAAUGGACAGAAGGGCAGAGCAA [C6A U7A C9A U10A G11A G12U]	1.67
AGUUGAAGAAAAGAGCUCCAGCACAGUGAAAUGGACAGAAGGGCAGAGCAA [C6A U7A C9A U10A G11A G12A]	1.79
AGUUGAAGAAACGAGCUCCAGCACAGUGAAAUGGACAGAAGGGCAGAGCAA [C6A U7A C9A U10A G11A G12C]	2.24
AGUUGAAGAAUCGAGCUCCAGCACAGUGAAAUGGACAGAAGGGCAGAGCAA [C6A U7A C9A U10A G11U G12C]	2.55
AGUUGAAGAAUUGAGCUCCAGCACAGUGAAAUGGACAGAAGGGCAGAGCAA [C6A U7A C9A U10A G11U G12U]	1.53
AGUUGAAGAAUAGAGCUCCAGCACAGUGAAAUGGACAGAAGGGCAGAGCAA [C6A U7A C9A U10A G11U G12A]	0.701
AGUUGAAGAAGGGAGCUCCAGCACAGUGAAAUGGAUAGAAGGGCAGAGCAA [C6A U7A C9A U10A C36U]	0.122
AGUUGAAGAAGGGAGCUCCAGCACAGUGAAAUGGAAAGAAGGGCAGAGCAA [C6A U7A C9A U10A C36A]	0.531
AGUUGAAGAAGGGAGCUCCAGCACAGUGAAAUGGAGAGAAGGGCAGAGCAA [C6A U7A C9A U10A C36G]	0.433
AGUUGAAGAAGGGAGCUCCAGCACAGUGAAAUGGACAGAAGGGGCGAGCAA [C6A U7A C9A U10A C44G A45C]	1.44
AGUUGAAGAAGGGAGCUCCAGCACAGUGAAAUGGACAGAAGGGGUGAGCAA [C6A U7A C9A U10A C44G A45U]	0.598
AGUUGAAGAAGGGAGCUCCAGCACAGUGAAAUGGACAGAAGGGGGGAGCAA [C6A U7A C9A U10A C44G A45G]	0.124
AGUUGAAGAAGGGACGUCCAGCACAGUGAAAUGGACAGAAGGGCAGAGCAA [C6A U7A C9A U10A G15C C16G]	0.812
AGUUGAAGAAGGGACUUCCAGCACAGUGAAAUGGACAGAAGGGCAGAGCAA [C6A U7A C9A U10A G15C C16U]	0.63
AGUUGAAGAAGGGACAUCCAGCACAGUGAAAUGGACAGAAGGGCAGAGCAA [C6A U7A C9A U10A G15C C16A]	0.525
AGUUGAAGAAGCUAGCUCCAGCACAGUGAAAUGGACAGAAGGGCAGAGCAA [C6A U7A C9A U10A G12C G13U]	0.355

Variant	exon inclusion enrichment index
AGUUGAAGAAGCCAGCUCCAGCACAGUGAAAUGGACAGAAGGGCAGAGCAA [C6A U7A C9A U10A G12C G13C]	1.06
AGUUGAAGAAGCAAGCUCCAGCACAGUGAAAUGGACAGAAGGGCAGAGCAA [C6A U7A C9A U10A G12C G13A]	1.72
AGUUGAAGAAGGUUGCUCCAGCACAGUGAAAUGGACAGAAGGGCAGAGCAA [C6A U7A C9A U10A G13U A14U]	0.534
AGUUGAAGAAGGUGGCUCCAGCACAGUGAAAUGGACAGAAGGGCAGAGCAA [C6A U7A C9A U10A G13U A14G]	0.553
AGUUGAAGAAGGUCGCUCCAGCACAGUGAAAUGGACAGAAGGGCAGAGCAA [C6A U7A C9A U10A G13U A14C]	1.14
AGUUGAAGAAGGGAGCUCCAGUACAGUGAAAUGGACAGAAGGGCAGAGCAA [C6A U7A C9A U10A C22U]	0.414
AGUUGAAGAAGGGAGCUCCAGGACAGUGAAAUGGACAGAAGGGCAGAGCAA [C6A U7A C9A U10A C22G]	0.964
AGUUGAAGAACAGAGCUCCAGCACAGUGAAAUGGACAGAAGGGCAGAGCAA [C6A U7A C9A U10A G11C G12A]	1.98
AGUUGAAGAACCGAGCUCCAGCACAGUGAAAUGGACAGAAGGGCAGAGCAA [C6A U7A C9A U10A G11C G12C]	2.68
AGUUGAAGAACUGAGCUCCAGCACAGUGAAAUGGACAGAAGGGCAGAGCAA [C6A U7A C9A U10A G11C G12U]	1.91
AGUUGAAGAAGGGAGCUCCACAACAGUGAAAUGGACAGAAGGGCAGAGCAA [C6A U7A C9A U10A G21C C22A]	0.729
AGUUGAAGAAGGGAGCUCCACUACAGUGAAAUGGACAGAAGGGCAGAGCAA [C6A U7A C9A U10A G21C C22U]	0.813
AGUUGAAGAAGGGAGCUCCACGACAGUGAAAUGGACAGAAGGGCAGAGCAA [C6A U7A C9A U10A G21C C22G]	1.63
AGUUGAAGAAGGGAGCUCCAGCACAGUGAAAUGGACAGAAGGGUGGAGCAA [C6A U7A C9A U10A C44U A45G]	0.419
AGUUGAAGAAGGGAGCUCCAGCACAGUGAAAUGGACAGAAGGGUUGAGCAA [C6A U7A C9A U10A C44U A45U]	0.433
AGUUGAAGAAGGGAGCUCCAGCACAGUGAAAUGGACAGAAGGGUCGAGCAA [C6A U7A C9A U10A C44U A45C]	1.16
AGUUGAAGAAGGGAGCUCCAGCAUCGUGAAAUGGACAGAAGGGCAGAGCAA [C6A U7A C9A U10A C24U A25C]	2.5
AGUUGAAGAAGGGAGCUCCAGCAUGGUGAAAUGGACAGAAGGGCAGAGCAA [C6A U7A C9A U10A C24U A25G]	1.3
AGUUGAAGAAGGGAGCUCCAGCAUUGUGAAAUGGACAGAAGGGCAGAGCAA [C6A U7A C9A U10A C24U A25U]	0.761
AGUUGAAGAAGGGAAUUCCAGCACAGUGAAAUGGACAGAAGGGCAGAGCAA [C6A U7A C9A U10A G15A C16U]	0.351
AGUUGAAGAAGGGAAAUCCAGCACAGUGAAAUGGACAGAAGGGCAGAGCAA [C6A U7A C9A U10A G15A C16A]	0.363
AGUUGAAGAAGGGAAGUCCAGCACAGUGAAAUGGACAGAAGGGCAGAGCAA [C6A U7A C9A U10A G15A C16G]	0.366
AGUUGAAGAAGAUAGCUCCAGCACAGUGAAAUGGACAGAAGGGCAGAGCAA [C6A U7A C9A U10A G12A G13U]	0.801
AGUUGAAGAAGAAAGCUCCAGCACAGUGAAAUGGACAGAAGGGCAGAGCAA [C6A U7A C9A U10A G12A G13A]	1.6
AGUUGAAGAAGACAGCUCCAGCACAGUGAAAUGGACAGAAGGGCAGAGCAA [C6A U7A C9A U10A G12A G13C]	1.94
